Measured values as given in patent US20160002357A1 (Pfizer, published 2016).
“And” between values parts separate entries of the source, which are not always exact repeats. Equal entries are not always repeated.

B1: 20 EK-DART (bispecific antibody)
chain 1: AIQMTQSPSSLSASVGDRVTITCRASQSIGKYLNWYQQIPGKAPKLLIYTASTLQTGVPSRFSGSGSGTDFTLTIVSLQPEDFATYYCQQSFNTPRTFGQGTKVEIKGGGSGGGGEVQLVESGGGLVQPGGSLRLSCAASGFTFNTYAMNWVRQAPGKGLEWVARIRSKYNNYATYYADSVKDRFTISRDDSKNSLYLQMNSLKTEDTAVYYCVRHGNFGNSYVSWFAYWGQGTLVTVSSGGCGGGKVAALKEKVAALKEKVAALKEKVAALKE
chain 2: QAVVTQEPSLTVSPGGTVTLTCRSSTGAVTTSNYANWVQQKPGQAPRGLIGGTNKRAPWTPARFSGSLLGGKAALTITGAQAEDEADYYCALWYSNLWVFGGGTKLTVLGGGGSGGGGEVQLVQSGAEVKKPGASVKVSCKASGYTFTGYYMHWVRQAPGQGLEWMGRINPNSGGTNYAQKFQGRVTMTRDTSISTAYMELSRLRSDDTAVYYCAKGSGSGAFDIWGQGTMVTVSSGGCGGGEVAALEKEVAALEKEVAALEKEVAALEK
notes: also called P-CAD 20 EK-DART (CD3-2)
B2: 30 EK-DART (bispecific antibody)
chain 1: DIVMTQSPLSLPVTLGQPASISCRSSQSLVHSDGNTYLHWFQQRPGQSPRRLIYKVSNRDSGVPDRFSGSGSGTDFTLKISRVEAEDVGVYYCMQGTHWPPLFGQGTKVEIKGGGSGGGGEVQLVESGGGLVQPGGSLRLSCAASGFTFNTYAMNWVRQAPGKGLEWVARIRSKYNNYATYYADSVKDRFTISRDDSKNSLYLQMNSLKTEDTAVYYCVRHGNFGNSYVSWFAYWGQGTLVTVSSGGCGGGKVAALKEKVAALKEKVAALKEKVAALKE
chain 2: QAVVTQEPSLTVSPGGTVTLTCRSSTGAVTTSNYANWVQQKPGQAPRGLIGGTNKRAPWTPARFSGSLLGGKAALTITGAQAEDEADYYCALWYSNLWVFGGGTKLTVLGGGGSGGGGEVQLVESGGGVVQPGRSLRLSCAASGFTFSSYGMHWVRQAPGKGLEWVAVISYDGSNKYYADSVKGRFTISRDNSKNTLYLQMNSLRAEDTAVYYCAKSSSDRTFDYWGQGTLVTVSSGGCGGGEVAALEKEVAALEKEVAALEKEVAALEK
notes: also called P-CAD 30 EK-DART (CD3-2)
B3: 33 EK-DART (bispecific antibody)
chain 1: QSVLTQPPSVSAAPGQKVTISCSGSSSNIGNNYVSWYQQLPGTAPKLLIYDNNKRPSGIPDRFSGSKSGTSATLGITGLQTGDEADYYCGTWDSSLSAYVFGTGTKVTVLGGGSGGGGEVQLVESGGGLVQPGGSLRLSCAASGFTFNTYAMNWVRQAPGKGLEWVARIRSKYNNYATYYADSVKDRFTISRDDSKNSLYLQMNSLKTEDTAVYYCVRHGNFGNSYVSWFAYWGQGTLVTVSSGGCGGGKVAALKEKVAALKEKVAALKEKVAALKE
chain 2: QAVVTQEPSLTVSPGGTVTLTCRSSTGAVTTSNYANWVQQKPGQAPRGLIGGTNKRAPWTPARFSGSLLGGKAALTITGAQAEDEADYYCALWYSNLWVFGGGTKLTVLGGGGSGGGGQMQLVQSGAEVKKPGASVKVSCKASGYTFTSYGISWVRQAPGQGLEWMGWISAYNGNTNYAQKLQGRVTMTTDTSTSTAYMELRSLRSDDTAVYYCALIGSGVAFDIWGQGTMVTVSSGGCGGGEVAALEKEVAALEKEVAALEKEVAALEK
notes: CD3 VL x P-CAD VH-E-coil); also called P-CAD 33 EK-DART (CD3-2)
B4: 153 EK-DART (bispecific antibody)
chain 1: QSVLTQPPSVSAAPGQKVTISCSGSSSNIGNNYVSWYQQLPGTAPKLLIYDNNKRPSGIPDRFSGSKSGTSATLGITGLQTGDEADYYCGTWDSSLSGVVFGGGTKLTVLGGGSGGGGEVQLVESGGGLVQPGGSLRLSCAASGFTFNTYAMNWVRQAPGKGLEWVARIRSKYNNYATYYADSVKDRFTISRDDSKNSLYLQMNSLKTEDTAVYYCVRHGNFGNSYVSWFAYWGQGTLVTVSSGGCGGGKVAALKEKVAALKEKVAALKEKVAALKE
chain 2: QAVVTQEPSLTVSPGGTVTLTCRSSTGAVTTSNYANWVQQKPGQAPRGLIGGTNKRAPWTPARFSGSLLGGKAALTITGAQAEDEADYYCALWYSNLWVFGGGTKLTVLGGGGSGGGGEVQLVQSGAEVKKPGASVKVSCKASGYTFTSYGISWVRQAPGQGLEWMGWISAYNGNTNYAQKLQGRVTMTTDTSTSTAYMELRSLRSDDTAVYYCATIDTANAFGIWGQGTMVTVSSGGCGGGEVAALEKEVAALEKEVAALEKEVAALEK
B5: 34 EK-DART (bispecific antibody)
chain 1: QSVVTQPPSVSAAPGQKVTISCSGSSSNIGNNYVSWYQQLPGTAPKLLIYDNNKRPSGIPDRFSGSKSGTSATLGITGLQTGDEADYYCGTWDSSLSAWVFGGGTKLTVLGGGSGGGGEVQLVESGGGLVQPGGSLRLSCAASGFTFNTYAMNWVRQAPGKGLEWVARIRSKYNNYATYYADSVKDRFTISRDDSKNSLYLQMNSLKTEDTAVYYCVRHGNFGNSYVSWFAYWGQGTLVTVSSGGCGGGKVAALKEKVAALKEKVAALKEKVAALKE
chain 2: QAVVTQEPSLTVSPGGTVTLTCRSSTGAVTTSNYANWVQQKPGQAPRGLIGGTNKRAPWTPARFSGSLLGGKAALTITGAQAEDEADYYCALWYSNLWVFGGGTKLTVLGGGGSGGGGEVQLVQSGAEVKKPGASVKVSCKASGYTFTSYGISWVRQAPGQGLEWMGWISAYNGNTNYAQKLQGRVTMTTDTSTSTAYMELRSLRSDDTAVYYCATIDTASAFDIWGQGTMVTVSSGGCGGGEVAALEKEVAALEKEVAALEKEVAALEK
notes: also called P-CAD 34 EK-DART (CD3-2)
B6: 153 MP3 N-terminal DART (bispecific antibody, human IgG1)
chain 1: QSVLTQPPSVSAAPGQKVTISCSGSSSNIGNNYVSWYQQLPGTAPKLLIYDNNKRPSGIPDRFSGSKSGTSATLGITGLQTGDEADYYCGTWDSSLSGVVFGGGTKLTVLGGGGSGGGGEVQLVESGGGLVQPGGSLRLSCAASGFTFSTYAMNWVRQAPGKGLEWVGRIRSKYNNYATYYADSVKGRFTISRDDSKNSLYLQMNSLKTEDTAVYYCVRHGNFGNSYVSWFAYWGQGTLVTVSSGVEPKSCDKTHTCPPCPAPEAAGAPSVFLFPPKPKDTLMISRTPEVTCVVVDVSHEDPEVKFNWYVDGVEVHNAKTKPREEQYNSTYRVVSVLTVLHQDWLNGKEYKCKVSNKALPAPIEKTISKAKGQPREPQVYTLPPSREEMTKNQVSLWCLVKGFYPSDIAVEWESNGQPENNYKTTPPVLDSDGSFFLYSKLTVDKSRWQQGNVFSCSVMHEALHNHYTQKSLSLSPGK
chain 2: QAVVTQEPSLTVSPGGTVTLTCRSSTGAVTTSNYANWVQQKPGQAPRGLIGGTNKRAPWTPARFSGSLLGGKAALTITGAQAEDEADYYCALWYSNLWVFGGGTKLTVLGGGGSGGGGEVQLVQSGAEVKKPGASVKVSCKASGYTFTSYGISWVRQAPGQGLEWMGWISAYNGNTNYAQKLQGRVTMTTDTSTSTAYMELRSLRSDDTAVYYCATIDTANAFGIWGQGTMVTVSSGFNRGEC
chain 3: DKTHTCPPCPAPEAAGAPSVFLFPPKPKDTLMISRTPEVTCVVVDVSHEDPEVKFNWYVDGVEVHNAKTKPREEQYNSTYRVVSVLTVLHQDWLNGKEYKCKVSNKALPAPIEKTISKAKGQPREPQVYTLPPSREEMTKNQVSLSCAVKGFYPSDIAVEWESNGQPENNYKTTPPVLDSDGSFFLVSKLTVDKSRWQQGNVFSCSVMHEALHNRYTQKSLSLSPGK

Experiments:
[1] = biological target: T1, cynomolgus monkey P-cadherin ECD (cynomolgus monkey); assay: SPR Biacore 3000, antigen immobilised
T1 construct: extracellular domain; also called cyno P-cadherin ECD; Cyno P-cadherin
Protocol: (§1) Binding affinity of EK-DART proteins to P-cadherin and CD3 was analyzed by SPR using a BIACORE® 3000 biosensor (GE Healthcare). The antigens huCD3εδ and either human P-cadherin-Fc or human/cynomolgus monkey/murine P-cadherin-ECD were immobilized on the CM-5 sensor chip by amine coupling kit as recommended by the manufacturer. […] All EK-DART proteins in Tables 15 and 16 comprise CD3-2.

Hu P-cadherin-Fc = biological target: T2, Hu P-cadherin-Fc (human, UniProt P22223 108-654, limits assumed); assay: ELISA
T2 construct: also called recombinant human P-cadherin-Fc; human P-cadherin-Fc; not shown: Fc
T2 sequence (P22223 108-654 limits assumed): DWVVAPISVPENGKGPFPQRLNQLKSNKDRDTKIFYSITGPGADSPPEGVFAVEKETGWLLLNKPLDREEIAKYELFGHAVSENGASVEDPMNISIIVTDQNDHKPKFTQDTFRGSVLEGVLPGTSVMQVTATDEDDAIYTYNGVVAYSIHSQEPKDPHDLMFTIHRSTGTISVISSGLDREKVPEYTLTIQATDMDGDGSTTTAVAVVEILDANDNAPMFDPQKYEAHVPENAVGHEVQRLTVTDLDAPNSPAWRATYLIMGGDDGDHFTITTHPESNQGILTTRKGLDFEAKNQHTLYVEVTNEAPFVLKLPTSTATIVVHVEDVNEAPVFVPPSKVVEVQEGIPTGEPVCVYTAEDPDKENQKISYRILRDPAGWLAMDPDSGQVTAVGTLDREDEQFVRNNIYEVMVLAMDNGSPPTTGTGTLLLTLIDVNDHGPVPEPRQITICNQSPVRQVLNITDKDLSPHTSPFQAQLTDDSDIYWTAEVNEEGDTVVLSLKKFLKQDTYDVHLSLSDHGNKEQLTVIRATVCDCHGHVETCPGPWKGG

[2] = biological target: T3, human P-cadherin expressed on the cell surface (human, UniProt P22223 108-829); assay: cell ELISA, H1650 cells
T3 construct: also called SW480-huPcad; CHO-huPcad
T3 sequence (P22223 108-829): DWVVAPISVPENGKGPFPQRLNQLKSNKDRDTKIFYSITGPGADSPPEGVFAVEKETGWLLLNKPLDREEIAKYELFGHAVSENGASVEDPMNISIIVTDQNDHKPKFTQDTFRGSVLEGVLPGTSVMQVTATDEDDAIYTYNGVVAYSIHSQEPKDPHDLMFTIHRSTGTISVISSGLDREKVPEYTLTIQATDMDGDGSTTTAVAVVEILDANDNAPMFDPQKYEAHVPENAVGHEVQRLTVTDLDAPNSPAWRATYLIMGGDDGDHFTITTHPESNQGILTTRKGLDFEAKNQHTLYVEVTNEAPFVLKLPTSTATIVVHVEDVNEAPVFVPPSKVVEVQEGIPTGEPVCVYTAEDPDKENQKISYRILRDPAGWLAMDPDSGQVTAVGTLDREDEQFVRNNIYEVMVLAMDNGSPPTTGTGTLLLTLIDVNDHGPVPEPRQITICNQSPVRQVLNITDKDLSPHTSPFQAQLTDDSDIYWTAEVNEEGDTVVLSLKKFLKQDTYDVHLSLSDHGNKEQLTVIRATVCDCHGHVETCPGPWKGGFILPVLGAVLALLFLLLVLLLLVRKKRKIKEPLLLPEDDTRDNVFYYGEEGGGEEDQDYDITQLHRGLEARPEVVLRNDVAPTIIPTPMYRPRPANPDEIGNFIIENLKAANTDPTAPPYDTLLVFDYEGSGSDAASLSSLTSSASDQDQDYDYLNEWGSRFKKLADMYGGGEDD

[3] = biological target: T1, cynomolgus monkey P-cadherin ECD; assay: SPR Biacore pH 7.4, average
[4] = biological target: T1, cynomolgus monkey P-cadherin ECD; assay: SPR Biacore
Protocol: as §1
All EK-DART proteins in Table 17 comprise CD3-2.

[5] = biological target: T1, cynomolgus monkey P-cadherin ECD; assay: SPR Biacore pH 7.4

Binder | Kd [1] | koff [1] | kon [1] | EC50 (Hu P-cadherin-Fc) | EC50 [2] | Kd [3] | Kd [4] | koff [4] | kon [4] | Kd [5] | koff [5] | kon [5] | t½ [5]
B1 | 2.03 nM | 0.00704 s⁻¹ | 3.46e+06 M⁻¹ s⁻¹ | 12.3 nM | ~115 nM |  |  |  |  |  |  |  | 
B2 | 1.37 nM | 0.00648 s⁻¹ | 4.72e+06 M⁻¹ s⁻¹ | 3.68 nM | 142 nM |  |  |  |  |  |  |  | 
B3 | 46.4 nM | 0.0578 s⁻¹ | 1.15e+06 M⁻¹ s⁻¹ | 1.8 nM | 60.1 nM |  |  |  |  |  |  |  | 
B4 |  |  |  |  |  | 0.417 nM | 0.232 nM | 0.000172 s⁻¹ | 732000 M⁻¹ s⁻¹ | 0.403 nM and 0.43 nM | 0.000211 s⁻¹ and 0.000222 s⁻¹ | 524000 M⁻¹ s⁻¹ and 517000 M⁻¹ s⁻¹ | 51.6 min and 49 min
B5 | 129 nM | 0.0833 s⁻¹ | 705000 M⁻¹ s⁻¹ | 2.85 nM | 68 nM |  |  |  |  |  |  |  | 
B6 |  |  |  |  |  | 2.61 nM |  |  |  | 2.43 nM and 2.78 nM | 0.000296 s⁻¹ and 0.000228 s⁻¹ | 122000 M⁻¹ s⁻¹ and 81900 M⁻¹ s⁻¹ | 36.8 min and 47.8 min
